{
  "source": "patent US20030153520A1",
  "about": "(published 2003)",
  "binders": {"B1": {"name": "endogenous cellubrevin (rat brain) (other, UniProt P63025 1-103, looked up)", "chain": "MSTGVPSGSSAATGSNRRLQQTQNQVDEVVDIMRVNVDKVLERDQKLSELDDRADALQAGASQFETSAAKLKRKYWWKNCKMWAIGISVLVIIVIIIIVWCVS", "notes": "also called Cb"}, "B2": {"name": "GST-Cyt-TIVAMP (other)", "chain": "MAILFAVVARGTTILAKHAWCGGNFLEVTEQILAKIPSENNKLTYSHGNYLFHYICQDRIVYLCITDDDFERSRAFNFLNEIKKRFQTTYGSRAQTALPYAMNSEFSSVLAAQLKHHSENKGLDKVMETQAQVDELKGIMVRNIDLVAQRGERLELLIDKTENLVDSSVTFKTTSRNLARAMCMKNLK", "notes": "also called full cytoplasmic domain of TI-VAMP fused to GST; not shown: glutathione S-transferase (GST) tag encoded by the pGEX4T vector (Pharmacia)"}},
  "key": {"[1]": {"molecular_target": "endogenous SNAP25 (rat brain extract; PC12 cells) (rat, UniProt P60881 1-206)", "sequence (P60881 whole entry)": "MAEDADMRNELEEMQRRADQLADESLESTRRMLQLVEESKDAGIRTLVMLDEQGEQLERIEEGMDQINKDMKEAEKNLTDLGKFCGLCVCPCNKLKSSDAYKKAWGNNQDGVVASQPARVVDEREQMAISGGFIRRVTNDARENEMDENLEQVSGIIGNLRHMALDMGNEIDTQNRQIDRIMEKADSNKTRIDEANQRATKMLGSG", "assay": "co-immunoprecipitation with anti-SNAP25 from Triton X-100 extract of rat brain", "procedure": "FIG. 4A illustrates that TI-VAMP forms a complex with SNAP25 in Triton X100 extract of rat brain. Immunoprecipitation with anti-SNAP25 antibodies was performed from Triton X100 soluble extract of rat brain as described in the Materials and Methods section of example 1 and immunoprecipitated proteins were detected by western blot analysis with the indicated antibodies (synaptobrevin 2, Sb2: cellubrevin, Cb: U, unbound, B: bound to anti-SNAP25 immunobeads). The bound fraction corresponded to a 65-fold enrichment compared to unbound. The SNAP25 TI-VAMP complex seemed more abundant than the SNAP25 synaptobrevin 2 one but this may only reflect a lower expression level of TI-VAMP compared to synaptobrevin 2 in the adult brain.\nImmunoprecipitation: Immunoprecipitation from rat brain was performed using a Triton X-100 soluble membrane fraction prepared as follows: two adult rat brains were homogenized, with a glass teflon homogenizer (9 strokes at 900 rpm) in 25 ml of 0.32M sucrose containing a protease inhibitor cocktail. All the steps were carried out at 4° C. After 10 min centrifugation at 800 g the supernatant was centrifuged at 184000 g for 1 hour, obtaining a cytosolic and a membrane fraction in the supernatant and the pellet, respectively. […]"}, "6xhis-tagged SNAP25A": {"molecular_target": "T1, 6xhis-tagged SNAP25A (UniProt P60881-2 1-206)", "T1 construct": "also called 6xhisSNAP25; 6xhis-SNAP25; not shown: 6xhis tag", "T1 sequence (P60881 other isoform, or with tags, fused parts or gaps limits assumed)": "as the sequence (P60881 whole entry) above, with E58D, I60V, D65N, Q66H, K69Q, T79K, F84C, C88F, V89I counted along it", "assay": "overlay assay", "procedure": "The binding of GST, GST-Cyt-TIVAMP, GST-ter-TIVAMP, or GST-CC-TIVAMP was measured by overlay over immobilized 6xhis-SNAP25 (indicated by the arrow). GST-CC-TIVAMP bound efficiently to immobilized 6xhis-SNAP25. Little binding of GST-Cyt-TIVAMP and none of GST and GST-Nter-TIVAMP were observed.\nOverlay assay: The corresponding GST fusion proteins and GST alone were produced and purified as previously described, 6xhis-tagged SNAP25A (6xhisSNAP25, bacterial strain is available from G. Schiavo, ICRF, London, UK) was purified. 6xhisSNAP25 was run on SDS-PAGE and western blotted onto Immobilon-P membrane (Millipore, Bedford, Mass.). The amount of 6xhisSNAP25 corresponds to 1.25 μg/mm of membrane, 4 mm strips of the membrane were cut and incubated in 150 mM NaCl, 5% non fat dry milk. 50 mM phosphate pH7.5 buffer for 1 hour at room temperature. The strips were then incubated with 10 nM the GST-fusion proteins overnight at 4° C. in buffer B (3% BSA, 0.1%, Tween20 20 mM Tris pH: 7.5) containing 1 mM DTT. The strips were rinsed three times in buffer B at room temperature, incubated with anti-GST antibodies in butfer B for 1 hour, rinsed in buffer B three times and incubated with alkaline phosphatase-coupled sheep anti-mouse antibodies. The detection as carried out simultaneously for all the strips, for the same time, using a kit from Promega (Madison, Wis.)."}},
  "data": [
    {"binder": "B1", "values": [
      {"measurement": "binding result", "setting": "[1]", "value": "no binding"}
    ]},
    {"binder": "B2", "values": [
      {"measurement": "binding result", "setting": "6xhis-tagged SNAP25A", "value": "binds"}
    ]}
  ]
}
